Measured values from patent US20210161943A1, “PAK4 INHIBITORS AND METHODS OF USE” (THE REGENTS OF THE UNIVERSITY OF CALIFORNIA, priority 2018, published 2021).

Tests used:
MC38 WT tumors = assay: Tumor growth of MC38 WT colon adenocarcinoma tumors in C57BL/6 mice; format: in vivo; conditions: for tumor growth versus anti-PD-1 monotherapy: MC38 WT tumors, PAK4 inhibitor twice daily from days 4 to 7, P<0.05 days 7, 10 (day 14 only combination)
Experimental: All mouse studies were performed under UCLA Animal Research Committee protocol #2004-159-23. C57BL/6 mice were bred and kept under defined-flora pathogen-free conditions at the Association for Assessment and Accreditation of Laboratory Animal Care approved animal facility of the Division of Experimental Radiation Oncology, UCLA. To study the in vivo effect of PD-1 blockade in anti-tumor response and immune cell infiltration, we subcutaneously (s.c.) injected 0.3×10^6 B16 PAK4 KO melanoma cells or MC38 PAK4 KO cells into the flanks of C57BL/6 syngeneic mice. 96 hours after tumor injection mice were randomly assigned into the different groups. Anti PD-1 (Cat. No. BE0146, clone RMP1-14, BioXCell, West Lebanon, N.H.) treatment was injected intraperitoneally three times per week at 200 μg per dose. For CD8 depletion studies, we administered anti-CD8 (Cat. No. BE0117, clone YST 169.4, BioXCell) one day before anti-PD1 treatment and then it was co-administered with anti-PD1 for a total of four doses. Splenocytes from control and CD8 depleted mice were taken to validate CD8 depletion efficacy (FIGS. 14-15). To study the combination effects of PAK4 inhibition (KPT-9274) and anti-PD-1 (Cat. No. BE0146, clone RMP1-14, BioXCell) in immune cell infiltration and anti-tumor response, 0.5×10^6 B16 WT or MC38 WT cells were injected s.c. into the flanks of C57BL/6 mice. 96 hours after tumor injection mice were randomly assigned into the different groups. PAK4 inhibitor was administered twice a day by oral gavage at 150 mg/kg while anti-PD-1 treatment was administered as described above. Tumor progression was monitored three times per week by measuring two perpendicular dimensions with a calliper.

[1] = test system: Wnt/β-catenin-mediated transcription in B16 WT CRISPR control cells; assay: Topflash/Fopflash WNT activity luciferase assay, B16 WT CRISPR control cells; format: cell-based, murine; conditions: Wnt-3a 200 ng/mL, 8 hours
Experimental: (§1) For Topflash WNT activity assay cells were plated in 24 well plates and were co-transfected with pSV-β-galactosidase control vector (PR-E1081, Promega, Madison, Wis.) along with either pTopflash (Addgene, Cat. No. 12456) or pFopflash (Addgene, Cat. No. 12457). 24 hours after transfection, cells were treated with Wnt-3a (R&D Systems, Minneapolins, Minn.) at 200 ng/mL. After 8 hours, cells were harvested using Reporter Lysis Buffer (Promega, Cat. No. PR-E4030) and luciferase activity was measured using Bright-Glo Luciferase Assay System (Promega, Cat. No. PR-E2610) and Beta-Glo Assay System (Promega, Cat. No. PR-E4720). Luciferase activity was normalized to its corresponding Beta-Glo activity to account for transfection efficiency.

[2] = test system: Wnt/β-catenin-mediated transcription in PAK4 KO cells; assay: Topflash/Fopflash WNT activity luciferase assay, B16 PAK4 KO cells; format: cell-based, murine; conditions: Wnt-3a 200 ng/mL, 8 hours
Experimental: as §1

Molecule | tumor growth versus anti-PD-1 monotherapy (MC38 WT tumors; listed as PAK4i) | tumor growth versus anti-PD-1 monotherapy (MC38 WT tumors; listed as PAK4 inhibitor) | PAK4 inhibitor associated toxicity (MC38 WT tumors; mice bearing MC38 WT tumors, PAK4 inhibitor 150 mg/kg twice daily oral gavage, days 4 to 7) | Topflash luciferase activity ([1]; B16 WT CRISPR control cells) | Fopflash luciferase activity (mutant TCF-binding sites) ([1]; B16 WT cells) | induction of Topflash luciferase activity ([2]; PAK4 KO cells versus B16 WT control) | Fopflash luciferase activity (mutant TCF-binding sites) ([2]; PAK4 KO cells)
Nc1ccc(/C=C/C(=O)NCc2cc3cc(-c4ccc(C(=O)N5CCC(F)(F)CC5)cc4)cc(-c4ccc(F)cc4)c3o2)cn1 [KPT-9274] | significant decreased tumor growth compared to anti-PD-1 alone | decreased tumor growth compared to the anti-PD-1 monotherapy group | discontinued due to PAK4i associated toxicity | – | – | – | –
Wnt-3a: Wnt-3a (R&D Systems), used at 200 ng/mL (protein, UniProt P56704 19-352, looked up) Protein Wnt-3a: SYPIWWSLAVGPQYSSLGSQPILCASIPGLVPKQLRFCRNYVEIMPSVAEGIKIGIQECQHQFRGRRWNCTTVHDSLAIFGPVLDKATRESAFVHAIASAGVAFAVTRSCAEGTAAICGCSSRHQGSPGKGWKWGGCSEDIEFGGMVSREFADARENRPDARSAMNRHNNEAGRQAIASHMHLKCKCHGLSGSCEVKTCWWSQPDFRAIGDFLKDKYDSASEMVVEKHRESRGWVETLRPRYTYFKVPTERDLVYYEASPNFCEPNPETGSFGTRDRTCNVSSHGIDGCDLLCCGRGHNARAERRREKCRCVFHWCCYVSCQECTRVYDVHTCK | – | – | – | significantly induced | did not induce | significantly reduced | did not induce
